Laboratory results published in patent publication US20090291083A1, “BARB4 TARGET, ANTIBODY DESIGNATED BARB4, BARB4 RELATED ANTIBODIES, AND METHODS OF MAKING AND USING SAME” (PATRYS LIMITED, priority 2008, published 2009).

Assays:
[1] = test system: Malignant Tissues: Breast; experiment: Immunohistochemistry (IHC) with biotinylated BARB4 on malignant tissue; format: binding, human; conditions: positive/negative
Experimental: (§1) Immunohistochemistry with human IgG on human tissue naturally results in high background staining. Accordingly, BARB4 was labeled with biotin to reduce background.
(§2) BARB4 antibody and an unrelated commercial IgG control (Chrompure IgG, Dianova) where labelled with “EZ-Link Maleimide-PEO Solid Phase Biotinylation Kit” from Pierce (Cat-# 21930) and Immunohistochemistry was initiated on different tumor tissue. Parrafin embedded tissue was first deparaffinized by treatment with Xylene 1 for 5 min, Xylene 2 for 5 min, followed by 100% Ethanol 1 for 5 min, 100% Ethanol 2 for 5 min, 70 ml Methanol+500 μl H2O2 for 7 min, 90% Ethanol 1 for 3 min, 90% Ethanol 2 for 3 min, 80% Ethanol 1 for 3 min, 80% Ethanol 2 for 3 min, 70% Ethanol 1 for 3 min, 70% Ethanol 2 for 3 min, and then washed three times with distilled H2O. (1 and 2 mean that the tissues were treated 2 times with the same alcohol, one after the another, in two different tanks.) Tissue was then heated in Citric acid, pH 5,5 in a water-bath at 99.9° C. for 20 min, placed in Tris/NaCl (Tris, 0.6 g/l and NaCl 8.1 g/l, pH 7.4) for 5 min, block with 0.5% BSA in PBS for 60 min, and then washed three times with Tris/NaCl (Tris, 0.6 g/l and NaCl 8.1 g/l, pH 7.4). Primary antibody (150 μl per microscope slide) was added, or a negative control biotinylated isotype matched control human antibody (Chrompure IgG, Dianova, Germany) or a positive controlanti-cytokeratin antibody, and incubated for 30 min in a humidified chamber at 37° C. Tissue was washed three times with Tris/NaCl (Tris, 0.6 g/l and NaCl 8.1 g/l, pH 7.4). Secondary antibody: (150 […]) was subsequently added and incubated for 30 min in a humidified chamber at room temperature (for biotinylated antibodies: NeurtrAvidin 1:100 in PBS), washed three times with Tris/NaCl (Tris, 0.6 g/l and NaCl 8.1 g/l, pH7.4), placed in PBS for 10 min. Tiusse was subsequently incubated with diaminobenzidine (0.05%)-hydrogen peroxide (0.02%) (150 μl per microscope slide) (Sigma, Taufkirchen, München, Germany) for 10 min, washed three times with H2O, washed once with distilled H2O, incubated with hematoxylin/eosin for 5 min, and placed under running tap water 10-15 min. Tissue was then washed again with distilled H2O, and the slides covered with Aquatex (Merck Bioscience).

[2] = test system: Malignant Tissues: Pancreas; experiment: as above; format: binding, human; conditions: positive/negative
Experimental: as §1, §2

[3] = test system: human pancreas carcinoma cells (BXPC-3); experiment: Glycosidase assay on cytospins, immunohistochemical staining; format: binding; conditions: BXPC-3 cytospins, biotinylated BARB4 100 μg/ml
Experimental: To determine whether O- or N-linked sugar residues are potentially involved in BARB4 binding to tumor cells, cytospin preparations of BXPC-3 cancer cells were incubated with N- or O-glycosidase. In brief, 4×10^5 human pancreas carcinoma cells (BXPC-3) were resuspended in 1 ml Dulbecco's phosphate buffered saline pH 7.2 (Sigma, Taufkirchen, Germany) and incubated with 10 U/ml N-glycosidase or 40 mU/ml O-glycosidase (both Roche Applied Science, Mannheim, Germany) for 2 hours at 37° C. Untreated cells in Dulbecco's phosphate buffered saline served as control. Cytospins were prepared and immunohistochemical staining with biotinylated BARB4 antibody (100 μg/ml) was performed.
After treatment of the cells, binding of BARB4 was evaluated by immunohistochemical staining (FIG. 5). […] BARB4 could therefore bind to an eptiope that includes or consists of a carbohydrate moiety that is removed or modified by O-glycosidase treatment.

[4] = test system: BXPC-3 cells transfected with TAF 15 siRNA; experiment: FACS analysis after TAF 15 siRNA knockdown; format: binding, human; conditions: BARB4 300 μg/ml
Experimental: Before transfection, 24-well plates were inoculated with 0.5×10^4 BXPC-3 cells in growth medium (RPMI 1640 supplemented with […] and 1% (V/V) glutamine). The cells were incubated at 37° C. and a 7% CO2 atmosphere over night to reach a confluence of 50 to 70% the following day. 60 minutes prior to transfection, the medium was carefully aspirated from the wells and 250 μl (300 μl for nontransfected cells) fresh growth medium was added. For each well 50 μl transfection solution was prepared. First […] serum-free OptiMEM® I+GlutaMAX™-I (1×) medium (Invitrogen, Karlsruhe) supplemented with 0.5 μl siLentFect™Lipid Reagent (Biorad, München) was mixed. Afterwards 25 μl serum-free medium containing siGENOME SMARTpool siRNA (Dharmacon, Lafayette, USA) was prepared to achieve a final concentration of 100 nM siRNA. Both solutions were prepared separately. After five minutes they were added together and mixed by pipetting. […]
FACS assays were done with transfected cells. […] At least 200 μl FACS buffer was added and cells were analyzed by flow cytometry (FACScan; Becton Dickinson, San Jose, Calif.) using WinMDI software. […]
Mouse anti-human CD55 antibody (DAF; 1:1000; Acris, Hiddenhausen) was used to control protein expression of other cell surface membrane proteins. […] The cells were analyzed by flow cytometry (FACScan, Becton Dickinson, San Jose) and evaluated with WinMDI software.

B1: BARB4: human IgG antibody produced by hybridoma DSMZ Deposit No. DSM ACC2876; heavy chain SEQ ID NOs:1, 3, 5, 7, light chain SEQ ID NO:9 (antibody, V domains shown)
VH: QVQLVESGGGVVQPGRSLRLSCAASGFRFTTHGMHWVRQAPGKGLEWVAVISYNGRNKYYADYVNGRFTISRDDSRDTVFLQMNSLRPEDTAMYYCAKVRGDGYGDYGYFDYWGHGTLVSVSS
VL: QSALTQPRSVSGSPGQSVTISCTGTYNYVSWYQQHPGKAPKLMIFDVSRRSSGVPDRFSGSKSGNTASLTISGLQAEDEADYYCCSYGGTYLYVFGTGTTVTVLGQ
[1]; Invasive ductal
  Barb 4 +/−: 2/0
[1]; Lung Metastasis
  Barb 4 +/−: 1/0
[1]; Lymph Node Metastasis
  Barb 4 +/−: 1/0
[2]; Adeno
  Barb 4 +/−: 0/1
[2]; Lymph Node Metastasis
  Barb 4 +/−: 4/0
[3]; 10 U/ml N-glycosidase 2 hours 37° C.
  surface binding on cells treated with N-glycosidase: clear reduction of surface binding
[3]; 40 mU/ml O-glycosidase 2 hours 37° C.
  binding on cells treated with O-glycosidase: no effect
[4]; 48 h after transfection
  FACS binding to cells treated with siRNA against human TAF15 mRNA: clearly reduced binding
[4]; after 48 h
  FACS binding to untreated cells and cells treated with unrelated siRNA (negative control): binds
